The source of these data is the Immune Epitope Database (IEDB).

In assay [1] the target is HLA-A*01:01. In words: IEDB peptide-MHC binding, purified MHC/competitive/radioactivity; filed as Kd, often an IC50 or EC50 that approximates it; ≥ and ≤ were set here for values at or beyond the usual limits of such assays. The settings on record: source organism: Homo sapiens.
In assay [2] the target is HLA-A*01:01. In words: IEDB peptide-MHC binding, purified MHC/competitive/radioactivity; ≥ and ≤ were set here for values at or beyond the usual limits of such assays. The note with it: source organism: Homo sapiens.

LYIFATCLGL: the Kd – broadly, the constant that tells how readily two partners part at equilibrium – in the assay with HLA-A*01:01 [1] is at least 36 µM.
Take LVTCLGLSY: the dissociation constant Kd with HLA-A*01:01 [1] was found to be 2.98 µM.
Consider LLGDNQIMPK, for which the Kd with HLA-A*01:01 [1] is at least 36 µM.
The same measure, in the same setting: as for LGSVVGNWQY, the figure is 12.5 µM.
For the sequence NYPLWSQSY, the Kd with HLA-A*01:01 [1] is at least 36 µM.
Turning to LVFGIELMEV, the Kd with HLA-A*01:01 [1] is at least 36 µM.
Same read-out and setting: as for KVAELVHFL, the figure is at least 36 µM.
Regarding KMVELVHFLL, in the assay with HLA-A*01:01 [1], the equilibrium dissociation constant (Kd) is at least 36 µM.
For the sequence IFATCLGLSY, in the assay with HLA-A*01:01 [1], the Kd was 12.5 µM.
For FATCLGLSY, in the assay with HLA-A*01:01 [2], the IC50 (as a rule, the concentration that inhibits the measured activity by half) turned out to be 0.658 µM.
